Our source for the stoichiometry N values is article PMC7352597.

Assay [1] addresses T1, RL2 (recombinant Lactaptin 2), the recombinant fragment of human κ-Casein (human), P07498.
T1 chain: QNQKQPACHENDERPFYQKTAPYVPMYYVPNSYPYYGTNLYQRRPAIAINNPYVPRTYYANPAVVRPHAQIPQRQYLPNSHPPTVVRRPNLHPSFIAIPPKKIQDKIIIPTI
In words: cellular fractionation, SDS-PAGE and Western Blot; MDA-MB-231 cells stimulated with 100 µg/mL RL2; fractions for cytoplasm, nucleus and mitochondria; RL2 monomer and dimer bands detected by Western Blot. As to conditions: remark: other sources report otherwise.

Assay [2] deals with T1, RL2 (recombinant Lactaptin 2), the …. Kind of assay: SDS-PAGE and Western Blot of cell lysates; MDA-MB-231 cells treated with 200 µg/mL RL2 for indicated times, extracellular RL2 washed off; RL2 monomer and dimer bands detected in lysates with anti-κ-Casein antibody; SDS-PAGE under reducing conditions. The settings on record: remark: other sources report otherwise. On the technique in general: A western blot detects proteins with antibodies after separation by electrophoresis.

B1: RL2 (recombinant Lactaptin 2), the recombinant fragment of human κ-Casein, P07498 23-134 (domain or fragment)
chain: QNQKQPACHENDERPFYQKTAPYVPMYYVPNSYPYYGTNLYQRRPAIAINNPYVPRTYYANPAVVRPHAQIPQRQYLPNSHPPTVVRRPNLHPSFIAIPPKKIQDKIIIPTI
In general, stoichiometry N refers to a count of units in the complex or per binding partner. For the molecule B1, the stoichiometry N in assay [1] and in assay [2] was 2 in each case.
